The RNAGym collection of RNA variant scans (doi:10.1073/pnas.2313332121)

B1: TPR t1 (parent)
chain: GACCAAUCUGCCCUCAGAGCUCGAGAACAUCUUCGGAUGCAGAGGAGGCAGGCUUCGGUGGCGCGAUAGCGCCAACGUCCUCAACCUCCAAUGCAUCCCACCACAUGAUGAUGCCUGAAGAGCCUUGGUUUUUUG

Variants of: B1
Assay: polymerase ribozyme fitness, log enrichment relative to wild type (log ratio); higher = more active; in vitro selection for triplet polymerase activity
Summary of the method: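 Mutant libraries for each subunit of a heterodimeric triplet polymerase ribozyme were made by PCR and then transcribed. Each library underwent one round of in vitro selection in triplicate: annealing with a biotinylated primer, the partner subunit and triplets, frozen incubation at −7 °C, gel excision of extended constructs, streptavidin-bead capture and RT-PCR. Input and output libraries were Illumina-sequenced, and only genotypes with ≥10 input reads and ≥1 read per output were kept. Fitness is the logarithm, base 2, of genotype enrichment over wild-type enrichment, computed from inverse-variance-weighted replicate averages.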

| Variant | polymerase ribozyme fitness (log ratio) |
| --- | --- |
| A74U C80U C82G | -0.403 |
| C72U A121C U134G | 1.71 |
| C73G U96G C102A | -3.86 |
| U78A C114G | -2.43 |
| G77A U87A A111U G122U | -4.12 |
| A74G U109G | -4.6 |
| C73U U81A C98A G113A G117U U131G | -5.03 |
| C73U A121U U133A | 2.19 |
| C73G G93C | -2.05 |
| A74G G113A | -1.8 |
| C72U A108G | -1.96 |
| C72U C85U U109A A121G | -4.72 |
| C73G G128A | -2.13 |
| U78C C97A | -4.81 |
| C73A C102G | -5.02 |
| C73A A100C A119U | -1.6 |
| C73A G93A U131G | -0.498 |
| C73G A111U | -4.08 |
| C72G A83G C115A | -4.27 |
| U78C A95G | -1.08 |
| C73G A100U | -1.09 |
| C72G C79G U133A | -1.07 |
| C72A U109C | -2.36 |
| C72U U78C C97A | -4.87 |

| Variant | polymerase ribozyme fitness (log ratio) |
| --- | --- |
| C73U A84G A90U A103G U109A C124A | -4.51 |
| C72G C124G | 1.51 |
| C72G C124A | 1.03 |
| C72G U78G G110U | -2.55 |
| C73U A95U A111U | -2.76 |
| C73A G128U | -2.16 |
| C72U U116A G120U | -1.54 |
| G77A G120U | -0.0426 |
| C73A C114G U130A | -2.99 |
| G77A G93A C124A | 1.34 |
| C76U A111U | -3.86 |
| U78C C88U C123G U125A | 1.82 |
| U78C C123A | 0.196 |
| U78A C123A | 0.278 |
| C73G C123A | 0.232 |
| A75U A111C | 0.255 |
| C73A U87C | 0.572 |
| C72U C104A G120A G122U U131A | -1.54 |
| A74C C79A U125A | -1.75 |
| U78C G93A U112C G128U | -1.32 |
| C72G U116A | -3.49 |
| C73U A90G A121C | 2.05 |
| C72G C102A | -2.79 |
| C72A C99U U109G | -6.16 |

| Variant | polymerase ribozyme fitness (log ratio) |
| --- | --- |
| C73U C76U C97U U112A U129A | -1.35 |
| G77A C98U U126C U130C | -1.62 |
| C72G C97A | -5.43 |
| G77A A111C A119U C123A U131C | -2.38 |
| C73G A105U | -2.27 |
| A74C A105C | -2.34 |
| C72U C79U U96A G113U | -4.45 |
| A74G G120A | 1.08 |
| G77U G122A U130G | -0.666 |
| C76A U78A U96A | -1.43 |
| C73A C104U | 0.181 |
| C72U C79A C115U | -3.58 |
| C73A G135C | 0.342 |
| C73G U116A | -3.66 |
| C72U C98A | -4.69 |
| G77U C82U G107A U112C | -5.86 |
| A74G U112G U116A | -1.07 |
| C76U G117C | -3.98 |
| C76U U125A | -0.353 |
| C73U C115G | -1.77 |
| C72U C123U | 0.155 |
| C73A G120A | 0.528 |
| C73A G120U | 0.347 |
| A75G U112A | 1.59 |

| Variant | polymerase ribozyme fitness (log ratio) |
| --- | --- |
| C72U U78G C115U U116C | -2.31 |
| C73U C104U | 0.0551 |
| U78C G110C | -3.67 |
| C76G C98A | -4.09 |
| C73U C79G | -2.02 |
| C73A U92G | -2.07 |
| C73A C89A A118U | -1.26 |
| A74U U78C G120C | 0.366 |
| C73U A83C | -2.2 |
| C73U A83U C104A G110U | -4.18 |
| C73G G113C | -2.85 |
| C73U C88U U92G | -2.64 |
| C76A C82G C88U G110C | -5.82 |
| U78C C94G A95G A118U | -0.801 |
| U78A U87G | -0.804 |
| C73U U116C | -0.498 |
| C73A U87C U96C A111G | -0.596 |
| C73U G122A | -0.427 |
| C72A G110A C115A | -2.51 |
| C72U C101U | -0.522 |
| C72U C85G | -2.48 |
| C76U C82A C88U | -1.25 |
| C72A G135C | -0.133 |
| C72U C79A U106C | -1.81 |

| Variant | polymerase ribozyme fitness (log ratio) |
| --- | --- |
| C72U A111U | -2.46 |
| C73U G117A | 0.149 |
| U78A A95C G113U U125G | -4.39 |
| C72U C73A A91U U131C U132C | -2.72 |
| A74C U109A | -5.88 |
| C73U G117A G120U | -2.36 |
| C73U U112A | 1.41 |
| C73G C80A | -4.88 |
| C72U A95C C97U | -2.94 |
| C72A G93C C102A U106A G110A U125A G127A | -6.51 |
| A74U G120U | -0.788 |
| U78A C115U | -1.41 |
| C72G G93C | -1.92 |
| A74U U112A G128A | -1.59 |
| G77C G110U | -1.93 |
| C73G G117A A121U | -0.326 |
| A74U U78A C85U C114U | -4.72 |
| G77A A90G | -0.174 |
| C73G A84U U112C | 0.269 |
| U78C C85G C124A | -0.513 |
| C73G A83C C101G C115U U116A | -5.12 |
| C72A U81C C82A | -1.12 |
| C72U A83U | -1.1 |
| C76U C86U A91U | -3.49 |

| Variant | polymerase ribozyme fitness (log ratio) |
| --- | --- |
| A74C U96A G117C | -5.37 |
| C73A U125A | -0.432 |
| C73U A105C A119U G128A | -3.98 |
| U78C A83C | 0.0151 |
| U78A G117C A121C | -5.24 |
| A74G C80A C82U A118U | -2.93 |
| C72A U78A | 0.142 |
| C72A U78C | -0.145 |
| U78C A83U C115A | -0.234 |
| C72A C114G | -2.31 |
| C72G C80U | -0.861 |
| U78C A83C C102U | -1.78 |
| C73G G122U C123G | 0.776 |
| G77U C82U | -0.811 |
| C72U G120U | -0.256 |
| C73A U81A A90G | -0.106 |
| C72A C101A | -1.15 |
| C72A C115A | -0.416 |
| C72U C86U | -0.347 |
| A74U C102U | -2.82 |
| G77C G122A U130A | -1.41 |
| C73U C80U G135C | -0.322 |
| C72G A108G G120A C124G U131G | -1.26 |
| C73A C88A C89A U112G A119C | -2.76 |

| Variant | polymerase ribozyme fitness (log ratio) |
| --- | --- |
| C73A U96C | 0.0129 |
| A75G U129A | -0.79 |
| U78A U96C | -0.338 |
| C72U C79G G113A | -4.23 |
| C73G U130C | -0.482 |
| C73G C101A G120C | -0.681 |
| C73G C86U U109A | -6.23 |
| G77C C86A G117A | -3.88 |
| C72G C85G A100C A121C | -1.55 |
| C72G A100U | -0.592 |
| U78C C80U | -0.608 |
| A75G C97U U131A | -0.00214 |
| C73A C101G A119U | -1.93 |
| U78C A111G C124A | 1.04 |
| U78C A111U | -2.5 |
| C76A U78A A118U | 0.066 |
| U78C A84G C97G | -5.87 |
| C72G U78C | -0.909 |
| C73A C79U C86A C115U | -3.26 |
| C73G C86A | -1.38 |
| C72G U130G | -1.24 |
| C72G G93A C101A A111U | -4.69 |
| C72U U129A | -1.42 |
